Measurements taken from patent US20100261660A1.

Biological target: hB7-1-FLAG (human) (UniProt P33681)
Experiment: flow cytometry, seven transient transfections of 293 cells, mean±SEM; used by the filing as a measure of expression

Sequence of hB7-1-FLAG (human) (P33681 other isoform, or with tags, fused parts or gaps): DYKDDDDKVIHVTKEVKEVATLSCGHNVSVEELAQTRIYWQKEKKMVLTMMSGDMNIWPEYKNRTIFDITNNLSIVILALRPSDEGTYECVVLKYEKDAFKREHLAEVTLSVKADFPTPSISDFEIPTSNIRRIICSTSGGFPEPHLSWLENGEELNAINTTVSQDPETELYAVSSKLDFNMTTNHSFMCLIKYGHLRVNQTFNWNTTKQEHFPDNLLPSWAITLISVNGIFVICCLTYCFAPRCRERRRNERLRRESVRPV

FLAG-specific mAb M2 (antibody) showed a mean fluorescence intensity (MFI) of 55.
